Test results taken from the RNAGym collection of RNA variant scans (doi:10.1021/acssynbio.7b00057).

B1: Pistol ribozyme (parent)
chain: GGGUCGUUGUUCCAUAAUCGCGUGGAUAUGGCACGCAAGUUUCUACCGGGCACCGUAAAUGUCCGACUGGAGCCGUUCGGGCGGCUAUAAACAGACCUCAGGCCCGAAGCGUGGCGGCACCUGCCGCCGGUGGUAAAAAAGAUCGGAAGAGCACACGUCU

Variants of: B1
Experiment: aptazyme ON/OFF ratio, guanine; higher = stronger switching; co-transcriptional cleavage with and without guanine

Row | Variant | aptazyme ON/OFF ratio
1 | U7C U8G U11G C12U C13U | 1.17
2 | U7C U8G U11G C12U C13A | 1.11
3 | U7C U8G U11G C12U C13G | 1.07
4 | U7C U10A C12U C13U | 1.35
5 | U7C U10A C12U C13G | 1.14
6 | U7C U10A C12U C13A | 1.19
7 | U7C U8G U10G U11A C12A C13A | 1.11
8 | U7C U8G U10G U11A C12A C13U | 1.2
9 | U7C U8G U10G U11A C12A C13G | 1.13
10 | U7C U8G U10A U11C C12A C13A | 1.14
11 | U7C U8G U10A U11C C12A C13U | 1.15
12 | U7C U8G U10A U11C C12A C13G | 1.05
13 | U7C U8G G9U U11C C12G C13U | 1.35
14 | U7C U8G G9U U11C C12G C13G | 1.17
15 | U7C U8G G9U U11C C12G C13A | 1.26
16 | U7C U8G U10G U11C C12G C13U | 1.26
17 | U7C U8G U10G U11C C12G C13A | 1.16
18 | U7C U8G U10G U11C C12G C13G | 1.18
19 | U7C U8G U11G C12A C13G | 1.08
20 | U7C U8G U11G C12A C13U | 1.18
21 | U7C U8G U11G C12A C13A | 1.1
22 | U7C U8G U10A U11A C13U | 1.29
23 | U7C U8G U10A U11A C13A | 1.12
24 | U7C U8G U10A U11A C13G | 1.13

Row | Variant | aptazyme ON/OFF ratio
25 | U7C U8G U11C C12A | 1.35
26 | U7C U8G U11C C12G | 1.3
27 | U7C U8G U11C C12U | 1.28
28 | U7C U8G U11A C12U C13A | 1.09
29 | U7C U8G U11A C12U C13U | 1.12
30 | U7C U8G U11A C12U C13G | 1.09
31 | U7C U8G U10G U11G C12G C13G | 1.15
32 | U7C U8G U10G U11G C12G C13U | 1.26
33 | U7C U8G U10G U11G C12G C13A | 1.17
34 | U7C U8G U10G U11G C12G | 1.21
35 | U7C U8G U10G U11G C12A | 1.28
36 | U7C U8G U10G U11G C12U | 1.21
37 | U7C U8G G9U U10G U11C C12U C13G | 1.08
38 | U7C U8G G9U U10G U11C C12U C13U | 1.04
39 | U7C U8G G9U U10G U11C C12U C13A | 1.13
40 | U7C U8G U11G C12G C13G | 1.08
41 | U7C U8G U11G C12G C13A | 1.07
42 | U7C U8G U11G C12G C13U | 1.05
43 | U7C U8G G9U U11C C12A C13G | 1.13
44 | U7C U8G G9U U11C C12A C13A | 1.31
45 | U7C U8G G9U U11C C12A C13U | 1.33
46 | U7C U8G U10A U11A C12G | 1.08
47 | U7C U8G U10A U11A C12A | 1.14
48 | U7C U8G U10A U11A C12U | 1.57

Row | Variant | aptazyme ON/OFF ratio
49 | U7C U8G G9U U11A C12G | 1.18
50 | U7C U8G G9U U11A C12U | 1.39
51 | U7C U8G G9U U11A C12A | 1.52
52 | U7C U8G U10C U11A C12A | 2.52
53 | U7C U8G U10C U11A C12G | 1.2
54 | U7C U8G U10C U11A C12U | 3.58
55 | U7C U8G U11G C12U | 1.19
56 | U7C U8G U11G C12A | 1.29
57 | U7C U8G U11G C12G | 1.1
58 | U7C U8G G9U U11A C12U C13G | 1.24
59 | U7C U8G G9U U11A C12U C13A | 1.43
60 | U7C U8G G9U U11A C12U C13U | 1.45
61 | U7C U8G U10A U11G C13A | 1.11
62 | U7C U8G U10A U11G C13G | 1.06
63 | U7C U8G U10A U11G C13U | 1.28
64 | U7C U8G U10A C12U C13G | 1.13
65 | U7C U8G U10A C12U C13A | 1.13
66 | U7C U8G U10A C12U C13U | 1.33
67 | U7C U8G U10C U11C C12G C13G | 1.13
68 | U7C U8G U10C U11C C12G C13A | 1.14
69 | U7C U8G U10C U11C C12G C13U | 1.24
70 | U7C U8G U10C U11A C12U C13U | 1.24
71 | U7C U8G U10C U11A C12U C13A | 1.15
72 | U7C U8G U10C U11A C12U C13G | 1.11

Row | Variant | aptazyme ON/OFF ratio
73 | U7C U8G G9U U11C C12U C13G | 1.07
74 | U7C U8G G9U U11C C12U C13A | 1.38
75 | U7C U8G G9U U11C C12U C13U | 1.32
76 | U7C U8G G9U U11A C13A | 1.28
77 | U7C U8G G9U U11A C13U | 1.28
78 | U7C U8G G9U U11A C13G | 1.09
79 | U7C U10A | 1.12
80 | U7C U8G U11A C12A C13G | 1.07
81 | U7C U8G U11A C12A C13A | 1.09
82 | U7C U8G U11A C12A C13U | 1.13
83 | U7C U8G U10G U11A C12U C13U | 1.23
84 | U7C U8G U10G U11A C12U C13G | 1.11
85 | U7C U8G U10G U11A C12U C13A | 1.23
86 | U7C U8G U10A U11G C12U | 1.2
87 | U7C U8G U10A U11G C12G | 1.23
88 | U7C U8G U10A U11G C12A | 1.11
89 | U7C U8G G9U U11G C12G C13U | 1.11
90 | U7C U8G G9U U11G C12G C13G | 1.18
91 | U7C U8G G9U U11G C12G C13A | 1.1
92 | U7C U8G G9U U10G U11C C12A C13U | 1.15
93 | U7C U8G G9U U10G U11C C12A C13G | 1.06
94 | U7C U8G G9U U10G U11C C12A C13A | 1.11
95 | U7C U8G U11A C12G C13U | 1.09
96 | U7C U8G U11A C12G C13G | 1.11

Row | Variant | aptazyme ON/OFF ratio
97 | U7C U8G U11A C12G C13A | 1.11
98 | U7C U8G U10C U11G C12U C13G | 1.17
99 | U7C U8G U10C U11G C12U C13U | 1.25
100 | U7C U8G U10C U11G C12U C13A | 1.24
101 | U7C U8G G9U U10G U11G C12U C13A | 1.2
102 | U7C U8G G9U U10G U11G C12U C13G | 1.18
103 | U7C U8G G9U U10G U11G C12U C13U | 1.26
104 | U7C U8G U10G U11A C13A | 1.18
105 | U7C U8G U10G U11A C13G | 1.13
106 | U7C U8G U10G U11A C13U | 1.28
107 | U7C U8G U10C U11G C12A | 2.9
108 | U7C U8G U10C U11G C12G | 1.32
109 | U7C U8G U10C U11G C12U | 1.97
110 | U7C U10A C12A C13G | 1.08
111 | U7C U10A C12A C13U | 1.25
112 | U7C U10A C12A C13A | 1.16
113 | U7C U8G U10A U11C C12U C13G | 1.18
114 | U7C U8G U10A U11C C12U C13U | 1.06
115 | U7C U8G U10A U11C C12U C13A | 1.1
116 | U7C U8G U10G U11C C12U C13U | 1.37
117 | U7C U8G U10G U11C C12U C13G | 1.21
118 | U7C U8G U10G U11C C12U C13A | 1.33
119 | U7C U8G G9U U11G C12U C13U | 1.29
120 | U7C U8G G9U U11G C12U C13G | 1.23

Row | Variant | aptazyme ON/OFF ratio
121 | U7C U8G G9U U11G C12U C13A | 1.32
122 | U7C U8G G9U U10G U11G C12A C13U | 1.19
123 | U7C U8G G9U U10G U11G C12A C13G | 1.05
124 | U7C U8G G9U U10G U11G C12A C13A | 1.1
125 | U7C U8G U10G C12G C13U | 1.29
126 | U7C U8G U10G C12G C13A | 1.11
127 | U7C U8G U10G C12G C13G | 1.14
128 | U7C U8G G9U U10G U11G C13G | 1.06
129 | U7C U8G G9U U10G U11G C13U | 1.21
130 | U7C U8G G9U U10G U11G C13A | 1.23
131 | U7C U10A C12A | 1.22
132 | U7C U10A C12G | 1.29
133 | U7C U10A C12U | 1.09
134 | U7C U8G U10A U11G C12A C13G | 1.13
135 | U7C U8G U10A U11G C12A C13U | 1.12
136 | U7C U8G U10A U11G C12A C13A | 1.12
137 | U7C U8G U10C U11A C13G | 1.16
138 | U7C U8G U10C U11A C13U | 3.36
139 | U7C U8G U10C U11A C13A | 1.32
140 | U7C U8G G9U U11G C12U | 1.27
141 | U7C U8G G9U U11G C12G | 1.35
142 | U7C U8G G9U U11G C12A | 1.27
143 | U7C U8G U10C U11C C13U | 1.11
144 | U7C U8G U10C U11C C13G | 1.09

Row | Variant | aptazyme ON/OFF ratio
145 | U7C U8G U10C U11C C13A | 1.03
146 | U7C U8G G9U U10G U11C C12A | 1.18
147 | U7C U8G G9U U10G U11C C12G | 1.18
148 | U7C U8G G9U U10G U11C C12U | 1.09
149 | U7C U8G U10A U11A C12G C13U | 1.17
150 | U7C U8G U10A U11A C12G C13G | 1.13
151 | U7C U8G U10A U11A C12G C13A | 1.11
152 | U7C U8G U10G C12U C13U | 1.37
153 | U7C U8G U10G C12U C13A | 1.27
154 | U7C U8G U10G C12U C13G | 1.23
155 | U7C U8G G9U U11G | 1.2
156 | U7C U8G G9U U11A | 1.58
157 | U7C U8G G9U U11C | 1.13
158 | U7C U8G U10G U11C C13G | 1.2
159 | U7C U8G U10G U11C C13U | 1.14
160 | U7C U8G U10G U11C C13A | 1.24
161 | U7C U8G G9U U11A C12A C13G | 1.19
162 | U7C U8G G9U U11A C12A C13U | 1.21
163 | U7C U8G G9U U11A C12A C13A | 1.32
164 | U7C U8G U11C C13U | 1.36
165 | U7C U8G U11C C13G | 1.12
166 | U7C U8G U11C C13A | 1.3
167 | U7C U8G U10A U11C C12G C13G | 1.22
